B1: Endonuclease CUE2, residues 9 to 47; numbered along this chain, P36075 (parent)
chain: HESKLSILMDMFPAISKSKLQVHLLENNNDLDLTIGLLL

± gives the uncertainty stated by the source.

In this data set the parent is B1. In words: abundance fitness (aPCA) (normalised: wild type 0, dead -1); higher = more abundant; growth selection in yeast, the domain comes from the species named. Conditions: Saccharomyces cerevisiae (strain ATCC 204508 / S288c).
Consider HESKLSILMDMFPAHSKSKLQVHLLENNNDLDLTIGLLL [I15H], for which the abundance fitness came to 0.022 ± 0.062.

On to HESKLSILMDMFPAGSKSKLQVHLLENNNDLDLTIGLLL [I15G], for which the abundance fitness is -0.735 ± 0.055.

HESKLSILMDMFPAQSKSKLQVHLLENNNDLDLTIGLLL [I15Q]: the abundance fitness was -0.081 ± 0.048.

With HESKLSILMDMFPAKSKSKLQVHLLENNNDLDLTIGLLL [I15K], the abundance fitness was -0.142 ± 0.054.

As to HESKLSILMDMFPAWSKSKLQVHLLENNNDLDLTIGLLL [I15W], the abundance fitness is -0.023 ± 0.038.

Consider HESKLSILMDMFPASSKSKLQVHLLENNNDLDLTIGLLL [I15S], for which the abundance fitness is -0.214 ± 0.057.

Turning to HESKLSILMDMFPAMSKSKLQVHLLENNNDLDLTIGLLL [I15M], the abundance fitness was -0.078 ± 0.055.

For the variant HESKLSILMDMFPATSKSKLQVHLLENNNDLDLTIGLLL [I15T], the abundance fitness is -0.115 ± 0.25.

In the case of HESKLSILMDMFPARSKSKLQVHLLENNNDLDLTIGLLL [I15R], the abundance fitness was -0.343 ± 0.043.

On to HESKLSILMDMFPAPSKSKLQVHLLENNNDLDLTIGLLL [I15P], for which the abundance fitness is -1 ± 0.2.

Take HESKLSILMDMFPAESKSKLQVHLLENNNDLDLTIGLLL [I15E]: the abundance fitness was -0.017 ± 0.042.

As to HESKLSILMDMFPAVSKSKLQVHLLENNNDLDLTIGLLL [I15V], the abundance fitness was -0.115 ± 0.048.

Turning to HESKLSILMDMFPALSKSKLQVHLLENNNDLDLTIGLLL [I15L], the abundance fitness was -0.08 ± 0.063.

Consider HESKLSILMDMFPAFSKSKLQVHLLENNNDLDLTIGLLL [I15F], for which the abundance fitness turned out to be 0.163 ± 0.18.

Consider HESKLSILMDMFPAISKSTLQVHLLENNNDLDLTIGLLL [K19T], for which the abundance fitness was -0.015 ± 0.047.

As for HESKLSILMDMFPAISKSQLQVHLLENNNDLDLTIGLLL [K19Q], the abundance fitness is -0.048 ± 0.044.

For HESKLSILMDMFPAISKSFLQVHLLENNNDLDLTIGLLL [K19F], the abundance fitness was -0.123 ± 0.08.

As for HESKLSILMDMFPAISKSVLQVHLLENNNDLDLTIGLLL [K19V], the abundance fitness is -0.038 ± 0.034.

As to HESKLSILMDMFPAISKSALQVHLLENNNDLDLTIGLLL [K19A], the abundance fitness was -0.051 ± 0.035.

Regarding HESKLSILMDMFPAISKSPLQVHLLENNNDLDLTIGLLL [K19P], the abundance fitness is -0.818 ± 0.08.

For HESKLSILMDMFPAISKSWLQVHLLENNNDLDLTIGLLL [K19W], the abundance fitness is -0.248 ± 0.052.

As to HESKLSILMDMFPAISKSHLQVHLLENNNDLDLTIGLLL [K19H], the abundance fitness was -0.151 ± 0.077.

Regarding HESKLSILMDMFPAISKSCLQVHLLENNNDLDLTIGLLL [K19C], the abundance fitness is -0.248 ± 0.096.

HESKLSILMDMFPAISKSYLQVHLLENNNDLDLTIGLLL [K19Y]: the abundance fitness was -0.364 ± 0.071.

In the case of HESKLSILMDMFPAISKSSLQVHLLENNNDLDLTIGLLL [K19S], the abundance fitness is -0.059 ± 0.041.

With HESKLSILMDMFPAISKSNLQVHLLENNNDLDLTIGLLL [K19N], the abundance fitness was determined as 0.063 ± 0.079.

On to HESKLSILMDMFPAISKSMLQVHLLENNNDLDLTIGLLL [K19M], for which the abundance fitness is -0.095 ± 0.088.

With HESKLSILMDMFPAISKSDLQVHLLENNNDLDLTIGLLL [K19D], the abundance fitness was -0.081 ± 0.067.

On to HESKLSILMDMFPAISKSRLQVHLLENNNDLDLTIGLLL [K19R], for which the abundance fitness is -0.01 ± 0.034.

HESKLSILMDMFPAISKSELQVHLLENNNDLDLTIGLLL [K19E]: the abundance fitness was -0.053 ± 0.042.

Consider HESKLSILMDMFPAISKSLLQVHLLENNNDLDLTIGLLL [K19L], for which the abundance fitness is -0.143 ± 0.045.

On to HESKLSILMDMFPAISKPKLQVHLLENNNDLDLTIGLLL [S18P], for which the abundance fitness is -0.214 ± 0.075.

Consider HESKLSILMDMFPAISKQKLQVHLLENNNDLDLTIGLLL [S18Q], for which the abundance fitness came to 0.082 ± 0.099.

As for HESKLSILMDMFPAISKWKLQVHLLENNNDLDLTIGLLL [S18W], the abundance fitness was -0.178 ± 0.044.

As to HESKLSILMDMFPAISKKKLQVHLLENNNDLDLTIGLLL [S18K], the abundance fitness was -0.03 ± 0.077.

With HESKLSILMDMFPAISKAKLQVHLLENNNDLDLTIGLLL [S18A], the abundance fitness is -0.063 ± 0.036.

For HESKLSILMDMFPAISKLKLQVHLLENNNDLDLTIGLLL [S18L], the abundance fitness is -0.103 ± 0.048.

On to HESKLSILMDMFPAISKDKLQVHLLENNNDLDLTIGLLL [S18D], for which the abundance fitness is -0.164 ± 0.15.

Regarding HESKLSILMDMFPAISKFKLQVHLLENNNDLDLTIGLLL [S18F], the abundance fitness is 0.056 ± 0.094.

In the case of HESKLSILMDMFPAISKRKLQVHLLENNNDLDLTIGLLL [S18R], the abundance fitness is -0.038 ± 0.033.

With HESKLSILMDMFPAISKVKLQVHLLENNNDLDLTIGLLL [S18V], the abundance fitness is 0.154 ± 0.036.

With HESKLSILMDMFPAISKTKLQVHLLENNNDLDLTIGLLL [S18T], the abundance fitness stood at 0.015 ± 0.046.

Take HESKLSILMDMFPAISKMKLQVHLLENNNDLDLTIGLLL [S18M]: the abundance fitness was -0.11 ± 0.057.

Consider HESKLSILMDMFPAISKSKLLVHLLENNNDLDLTIGLLL [Q21L], for which the abundance fitness was -0.24 ± 0.062.

HESKLSILMDMFPAISKSKLPVHLLENNNDLDLTIGLLL [Q21P]: the abundance fitness was -1.19 ± 0.42.

HESKLSILMDMFPAISKSKLGVHLLENNNDLDLTIGLLL [Q21G]: the abundance fitness is -0.139 ± 0.041.

As to HESKLSILMDMFPAISKSKLSVHLLENNNDLDLTIGLLL [Q21S], the abundance fitness was 0.033 ± 0.049.

Turning to HESKLSILMDMFPAISKSKLTVHLLENNNDLDLTIGLLL [Q21T], the abundance fitness was -0.128 ± 0.07.

As to HESKLSILMDMFPAISKSKLFVHLLENNNDLDLTIGLLL [Q21F], the abundance fitness came to 0.012 ± 0.16.

With HESKLSILMDMFPAISKSKLVVHLLENNNDLDLTIGLLL [Q21V], the abundance fitness was -0.118 ± 0.039.

For HESKLSILMDMFPAISKSKLKVHLLENNNDLDLTIGLLL [Q21K], the abundance fitness is -0.094 ± 0.047.

For HESKLSILMDMFPAISKSKLNVHLLENNNDLDLTIGLLL [Q21N], the abundance fitness amounted to 0.807 ± 0.49.

Take HESKLSILMDMFPAISKSKLHVHLLENNNDLDLTIGLLL [Q21H]: the abundance fitness was -0.124 ± 0.12.

Consider HESKLSILMDMFPAISKSKLEVHLLENNNDLDLTIGLLL [Q21E], for which the abundance fitness was -0.021 ± 0.054.

HESKLSILMDMFPAISKSKLWVHLLENNNDLDLTIGLLL [Q21W]: the abundance fitness is -0.423 ± 0.046.

HESKLSILMDMFPAISKSKLRVHLLENNNDLDLTIGLLL [Q21R]: the abundance fitness was -0.085 ± 0.034.

HESKLSILMDMFPAISKSKLCVHLLENNNDLDLTIGLLL [Q21C]: the abundance fitness is -0.061 ± 0.048.

As to HESKLSILMDMFPAISKSKLDVHLLENNNDLDLTIGLLL [Q21D], the abundance fitness is -0.119 ± 0.064.

As to HESKLSILMDMFPAISKSKLMVHLLENNNDLDLTIGLLL [Q21M], the abundance fitness was -0.089 ± 0.066.

Regarding HESKLSILMDMFPAISKSKLIVHLLENNNDLDLTIGLLL [Q21I], the abundance fitness was 0.155 ± 0.1.

Consider HESKLSILMDMFPAISKSKLQAHLLENNNDLDLTIGLLL [V22A], for which the abundance fitness was -0.001 ± 0.04.

In the case of HESKLSILMDMFPAISKSKLQEHLLENNNDLDLTIGLLL [V22E], the abundance fitness was -0.05 ± 0.04.

Consider HESKLSILMDMFPAISKSKLQDHLLENNNDLDLTIGLLL [V22D], for which the abundance fitness was -0.069 ± 0.11.

Consider HESKLSILMDMFPAISKSKLQCHLLENNNDLDLTIGLLL [V22C], for which the abundance fitness is 0.119 ± 0.082.

The record behind these values is the Human Domainome abundance scans (Beltran et al. 2025).
